Laboratory results as given in patent publication US20220177587A1, “METHODS AND USES OF VARIANT CD80 FUSION PROTEINS AND RELATED CONSTRUCTS” (Alpine Immune Sciences, Inc., priority 2018, published 2022).

Each molecule was assayed against CD28 (Homo sapiens, UniProt P10747) (assay: Jurkat/IL2 reporter assay: blockade of CD28 costimulation (plate-bound anti-CD3/CD86-Fc)). Details: Table E5; protein diluted to 40 nM before mixing with cells; 5 hours.
Assay type: cell-based
Parameters: host or cells: Jurkat cells expressing an IL-2-luciferase reporter
Procedure: The day before the assay, the assay plate was prepared. […] The plate was incubated overnight at 4° C. to allow the antibody and CD86-Fc protein to adhere to the surface of the plate. The next day, the wells of the assay plate were washed twice with 150 μL PBS prior to the assay.
Jurkat effector cells expressing IL-2-luciferase reporter were counted and resuspended in assay buffer to a concentration of 2×10^6 cells/mL. 60 μL of the Jurkat cell suspension were then added to the wells containing the CD80-Fc fusion molecules or controls. The cells and CD80 proteins were incubated at room temperature for 15 minutes and then 100 μL of the cell/CD80 protein mixture were transferred/well of the prepared anti-CD3/CD86-Fc assay plate.
The assay plate was briefly spun down (10 seconds at 1200 RPM) and incubated at 37° C. for 5 hours. After the 5 hour incubation, the plate was removed and equilibrated to room temperature for 15 minutes. 100 μL of Bio-Glo (Promega) were added/well of the assay plate, which was then placed on an orbital shaker for 10 minutes. Luminescence was measured with a 1 second per well integration time using a BioTek Cytation 3 luminometer.

Average Relative Luminescence Units | Molecule
2567 Relative Luminescence Units | L25S/E35D/M47I/D90N: variant CD80 IgV-Fc, IgV SEQ ID NO:168 (protein) VIHVTKEVKEVATLSCGHNVSVEESAQTRIYWQKDKKMVLTMMSGDINIWPEYKNRTIFDITNNLSIVILALRPSDEGTYECVVLKYEKNAFKREHLAEVTLSVKAD
999 Relative Luminescence Units | A71D: variant CD80 IgV-Fc, IgV SEQ ID NO:170 (protein) VIHVTKEVKEVATLSCGHNVSVEELAQTRIYWQKEKKMVLTMMSGDMNIWPEYKNRTIFDITNNLSIVILDLRPSDEGTYECVVLKYEKDAFKREHLAEVTLSVKAD
2848 Relative Luminescence Units | S44P/A71D: variant CD80 IgV-Fc, IgV SEQ ID NO:182 (protein) VIHVTKEVKEVATLSCGHNVSVEELAQTRIYWQKEKKMVLTMMPGDMNIWPEYKNRTIFDITNNLSIVILDLRPSDEGTYECVVLKYEKDAFKREHLAEVTLSVKAD
2178 Relative Luminescence Units | M47I/E88D: variant CD80 IgV-Fc, IgV SEQ ID NO:186 (protein) VIHVTKEVKEVATLSCGHNVSVEELAQTRIYWQKEKKMVLTMMSGDINIWPEYKNRTIFDITNNLSIVILALRPSDEGTYECVVLKYDKDAFKREHLAEVTLSVKAD
280 Relative Luminescence Units | E35D/I57I/L70Q/A71D: variant CD80 IgV-Fc, IgV SEQ ID NO:185 (protein) VIHVTKEVKEVATLSCGHNVSVEELAQTRIYWQKDKKMVLTMMSGDMNIWPEYKNRIIFDITNNLSIVIQDLRPSDEGTYECVVLKYEKDAFKREHLAEVTLSVKAD
759 Relative Luminescence Units | T13R/M42V/M47I/A71D: variant CD80 IgV-Fc, IgV SEQ ID NO:197 (protein) VIHVTKEVKEVARLSCGHNVSVEELAQTRIYWQKEKKMVLTVMSGDINIWPEYKNRTIFDITNNLSIVILDLRPSDEGTYECVVLKYEKDAFKREHLAEVTLSVKAD
360 Relative Luminescence Units | V20I/M47V/A71D: variant CD80 IgV-Fc, IgV SEQ ID NO:191 (protein) VIHVTKEVKEVATLSCGHNISVEELAQTRIYWQKEKKMVLTMMSGDVNIWPEYKNRTIFDITNNLSIVILDLRPSDEGTYECVVLKYEKDAFKREHLAEVTLSVKAD
1223 Relative Luminescence Units | E35D/I67L/A71D: variant CD80 IgV-Fc, IgV SEQ ID NO:195 (protein) VIHVTKEVKEVATLSCGHNVSVEELAQTRIYWQKDKKMVLTMMSGDMNIWPEYKNRTIFDITNNLSLVILDLRPSDEGTYECVVLKYEKDAFKREHLAEVTLSVKAD
1891 Relative Luminescence Units | Q27H/M43I/A71D/R73S: variant CD80 IgV-Fc, IgV SEQ ID NO:183 (protein) VIHVTKEVKEVATLSCGHNVSVEELAHTRIYWQKEKKMVLTMISGDMNIWPEYKNRTIFDITNNLSIVILDLSPSDEGTYECVVLKYEKDAFKREHLAEVTLSVKAD
2549 Relative Luminescence Units | M42I/I61V/A71D: variant CD80 IgV-Fc, IgV SEQ ID NO:187 (protein) VIHVTKEVKEVATLSCGHNVSVEELAQTRIYWQKEKKMVLTIMSGDMNIWPEYKNRTIFDVTNNLSIVILDLRPSDEGTYECVVLKYEKDAFKREHLAEVTLSVKAD
2685 Relative Luminescence Units | T41S/A71D/V84A: variant CD80 IgV-Fc, IgV SEQ ID NO:175 (protein) VIHVTKEVKEVATLSCGHNVSVEELAQTRIYWQKEKKMVLSMMSGDMNIWPEYKNRTIFDITNNLSIVILDLRPSDEGTYECVALKYEKDAFKREHLAEVTLSVKAD
1152 Relative Luminescence Units | E35D/A71D/L72V: variant CD80 IgV-Fc, IgV SEQ ID NO:200 (protein) VIHVTKEVKEVATLSCGHNVSVEELAQTRIYWQKDKKMVLTMMSGDMNIWPEYKNRTIFDITNNLSIVILDVRPSDEGTYECVVLKYEKDAFKREHLAEVTLSVKAD
2656 Relative Luminescence Units | M47V/N48H: variant CD80 IgV-Fc, IgV SEQ ID NO:180 (protein) VIHVTKEVKEVATLSCGHNVSVEELAQTRIYWQKEKKMVLTMMSGDVHIWPEYKNRTIFDITNNLSIVILALRPSDEGTYECVVLKYEKDAFKREHLAEVTLSVKAD
2597 Relative Luminescence Units | K36R/G78A: variant CD80 IgV-Fc, IgV SEQ ID NO:178 (protein) VIHVTKEVKEVATLSCGHNVSVEELAQTRIYWQKERKMVLTMMSGDMNIWPEYKNRTIFDITNNLSIVILALRPSDEATYECVVLKYEKDAFKREHLAEVTLSVKAD
4225 Relative Luminescence Units | K34E/T41A/L72V: variant CD80 IgV-Fc, IgV SEQ ID NO:174 (protein) VIHVTKEVKEVATLSCGHNVSVEELAQTRIYWQEEKKMVLAMMSGDMNIWPEYKNRTIFDITNNLSIVILAVRPSDEGTYECVVLKYEKDAFKREHLAEVTLSVKAD
924 Relative Luminescence Units | H18Y/M47I/T57I/A71G: variant CD80 IgV-Fc, IgV SEQ ID NO:189 (protein) VIHVTKEVKEVATLSCGYNVSVEELAQTRIYWQKEKKMVLTMMSGDINIWPEYKNRIIFDITNNLSIVILGLRPSDEGTYECVVLKYEKDAFKREHLAEVTLSVKAD
2334 Relative Luminescence Units | V22L/E35G/A71D/L72P: variant CD80 IgV-Fc, IgV SEQ ID NO:193 (protein) VIHVTKEVKEVATLSCGHNVSLEELAQTRIYWQKGKKMVLTMMSGDMNIWPEYKNRTIFDITNNLSIVILDPRPSDEGTYECVVLKYEKDAFKREHLAEVTLSVKAD
4078 Relative Luminescence Units | A26P/E35D/M43I/L85Q/E88D: variant CD80 IgV-Fc, IgV SEQ ID NO:202 (protein) VIHVTKEVKEVATLSCGHNVSVEELPQTRIYWQKDKKMVLTMISGDMNIWPEYKNRTIFDITNNLSIVILALRPSDEGTYECVVQKYDKDAFKREHLAEVTLSVKAD
4038 Relative Luminescence Units | E81K/A91S: variant CD80 IgV-Fc, IgV SEQ ID NO:172 (protein) VIHVTKEVKEVATLSCGHNVSVEELAQTRIYWQKEKKMVLTMMSGDMNIWPEYKNRTIFDITNNLSIVILALRPSDEGTYKCVVLKYEKDSFKREHLAEVTLSVKAD
4220 Relative Luminescence Units | Q33E/T41A: variant CD80 IgV-Fc, IgV SEQ ID NO:179 (protein) VIHVTKEVKEVATLSCGHNVSVEELAQTRIYWEKEKKMVLAMMSGDMNIWPEYKNRTIFDITNNLSIVILALRPSDEGTYECVVLKYEKDAFKREHLAEVTLSVKAD
1870 Relative Luminescence Units | V20I/M47V/I57I/V84I: variant CD80 IgV-Fc, IgV SEQ ID NO:190 (protein) VIHVTKEVKEVATLSCGHNISVEELAQTRIYWQKEKKMVLTMMSGDVNIWPEYKNRIIFDITNNLSIVILALRPSDEGTYECVILKYEKDAFKREHLAEVTLSVKAD
5445 Relative Luminescence Units | M47L/V68A: variant CD80 IgV-Fc, IgV SEQ ID NO:181 (protein) VIHVTKEVKEVATLSCGHNVSVEELAQTRIYWQKEKKMVLTMMSGDLNIWPEYKNRTIFDITNNLSIAILALRPSDEGTYECVVLKYEKDAFKREHLAEVTLSVKAD

Same assay, conditions: Table E5; protein diluted to 40 nM before mixing with cells; 5 hours; SEQ ID NO 176

Average Relative Luminescence Units | Molecule
1461 Relative Luminescence Units | E35D/A71D: variant CD80 IgV-Fc, listed twice: IgV SEQ ID NO:176 (Table E1) and 194 (Table E2) (protein) VIHVTKEVKEVATLSCGHNVSVEELAQTRIYWQKDKKMVLTMMSGDMNIWPEYKNRTIFDITNNLSIVILDLRPSDEGTYECVVLKYEKDAFKREHLAEVTLSVKAD
